Literature values as cited in PMC11299584.

Target: ANGPTL3/8 complex (Homo sapiens) (UniProt Q9Y5C1)
Assay: SPR

Chain of UniProt Q9Y5C1 (Q9Y5C1 17-460, chain 1 of 2): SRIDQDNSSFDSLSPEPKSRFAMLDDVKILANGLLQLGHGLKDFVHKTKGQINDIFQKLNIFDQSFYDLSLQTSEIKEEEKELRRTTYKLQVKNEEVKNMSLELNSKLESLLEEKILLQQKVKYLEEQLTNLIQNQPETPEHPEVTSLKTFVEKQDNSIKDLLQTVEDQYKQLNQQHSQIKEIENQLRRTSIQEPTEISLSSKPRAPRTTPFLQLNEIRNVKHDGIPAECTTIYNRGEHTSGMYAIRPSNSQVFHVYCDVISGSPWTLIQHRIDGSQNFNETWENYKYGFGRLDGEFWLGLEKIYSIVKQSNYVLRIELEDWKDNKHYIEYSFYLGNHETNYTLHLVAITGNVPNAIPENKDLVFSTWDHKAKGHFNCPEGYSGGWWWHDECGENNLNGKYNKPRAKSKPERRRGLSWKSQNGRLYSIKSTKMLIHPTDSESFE
Chain of UniProt Q9Y5C1 (Q6UXH0 22-198, chain 2 of 2, further chain): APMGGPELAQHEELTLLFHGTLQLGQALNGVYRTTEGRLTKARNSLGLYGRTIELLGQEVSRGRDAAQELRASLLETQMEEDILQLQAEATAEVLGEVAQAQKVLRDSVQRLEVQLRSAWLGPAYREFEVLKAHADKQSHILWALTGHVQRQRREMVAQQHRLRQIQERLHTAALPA

Kd: 0.53 nM
Substance: APOA5 (from UniProt Q8C7G5)
